Columns and labels:
[1] = target: T1, TRC-1 (p21SNF1/JunB heteromultimer) (Homo sapiens) (UniProt Q9NR55+P17275); assay: competition; settings: vs 12.5-fold for s2
T1 sequence 1: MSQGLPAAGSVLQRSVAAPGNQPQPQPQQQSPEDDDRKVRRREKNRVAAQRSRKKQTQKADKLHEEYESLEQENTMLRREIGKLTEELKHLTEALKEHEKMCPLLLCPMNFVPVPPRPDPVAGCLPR
T1 sequence 2: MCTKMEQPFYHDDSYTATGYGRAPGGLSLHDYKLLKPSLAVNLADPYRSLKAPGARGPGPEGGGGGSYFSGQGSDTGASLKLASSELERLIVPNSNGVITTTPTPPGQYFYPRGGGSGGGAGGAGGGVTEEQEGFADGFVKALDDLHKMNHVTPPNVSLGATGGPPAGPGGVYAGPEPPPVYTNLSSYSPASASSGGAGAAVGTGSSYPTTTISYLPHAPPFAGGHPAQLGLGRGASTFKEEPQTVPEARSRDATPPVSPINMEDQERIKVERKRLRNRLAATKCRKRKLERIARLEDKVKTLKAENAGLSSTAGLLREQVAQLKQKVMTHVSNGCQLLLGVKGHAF

[2] = target: T1, TRC-1 (p21SNF1/JunB heteromultimer) (Homo sapiens); assay: EMSA; settings: self-competition; abolished at 100-fold
[3] = target: Tax-response complex-1 (TRC-1), purified from SLB-I nuclear extract (human) (UniProt P17275)

Row | Substance | binding signal (fold excess for ~55% competition) [1] | also measured
1 | HTLV-1 LTR 21-bp repeat site1 (s1) | 100 | –
2 | HTLV-1 LTR 21-bp repeat site2 (s2) | – | binding signal (% competition at 12.5-fold excess) [2]: 55
3 | HTLV-1 LTR 21-bp repeat site3 (s3) | 50 | –
4 | HTLV-1 Tax protein, expressed in bacteria as a His6 fusion at its carboxy terminus (from UniProt P03409) | – | binding of purified TRC-1 to site2 probe in EMSA, phosphorimage analysis [3]: 2.5 to 6.5 fold
